Target: human V158 FcγRIIIa (human) (UniProt P08637)
Experiment: not described in this filing

human V158 FcγRIIIa (human), sequence (P08637 17-208 F176V limits assumed): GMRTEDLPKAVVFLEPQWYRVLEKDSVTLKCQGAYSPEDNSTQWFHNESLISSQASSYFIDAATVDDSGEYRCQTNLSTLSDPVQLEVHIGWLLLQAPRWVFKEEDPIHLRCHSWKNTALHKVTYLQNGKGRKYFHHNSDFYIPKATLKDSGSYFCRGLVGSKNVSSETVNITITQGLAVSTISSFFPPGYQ

Kd: 240 nM
Substance: human WT IgG1 (antibody)

— patent US20080219974A1
